One may read the Kd as a measure of binding affinity in units of concentration. A low value points to tighter binding.

4 molecules from patent US20220096649A1 (TALLAC THERAPEUTICS, published 2022) can be followed below.

Positions count from the first letter of the chain named.

Common to all, as to assay: SPR, antibody on GLC chip, SIRP as analyte
(SPR reads the build-up and loss of mass on a sensor chip optically.)

One experiment has as its target T1, SIRP-α mouse BL6 (mouse (BL6), UniProt P97797 32-150, limits assumed).
T1 construct: Soluble analyte in SPR
T1 sequence (looked up): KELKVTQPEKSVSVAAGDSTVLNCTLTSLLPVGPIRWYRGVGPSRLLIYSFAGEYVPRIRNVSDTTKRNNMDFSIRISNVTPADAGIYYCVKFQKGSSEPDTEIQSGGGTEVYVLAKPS
The method, then: (§1) The running buffer was PBS pH 7.4 with 0.01% TWEEN-20 (PBST+). All analytes were used at their nominal concentrations as determined by A280 absorbance and using their molar calculated extinction coefficient. Analytes were injected in a “one-shot” kinetic mode as described (see, e.g., Bravman et al., Anal. Biochem. 2006, 358, 281-288).
(§2) For the method using a GLC chip, the analytes were injected and flowed over anti-SIRPα antibodies immobilized (˜1000 RUs) on GLC chips using Proteon Amine Coupling Kit. For the immobilization step, the GLC chip was activated with EDAC/Sulpho-NHS 1:1 (Biorad) diluted 1/100 for 300 s at 25 μL/min. Anti-SIRPα antibodies were diluted to 80 nM concentration in 10 mM sodium acetate buffer pH 4.5 and immobilized to the chip at 30 μL/min for 50 s. Chip was inactivated with ethanolamine for 300 s at 25 μL/min. The analytes (e.g., SIRP-α from different species, SIRP-β, SIRP-γ) were injected in a “one-shot” kinetic mode at nominal concentrations of 100, 33, 11, 3.7, 1.2, and 0 nM. Association times were monitored for 90 s at 100 uL/min, and dissociation times were monitored for 1200 s. The surfaces were regenerated with a 2:1 v/v blend of Pierce IgG elution buffer/4M NaCl.
(§3) Biosensor data were double-referenced by subtracting the interspot data (containing no immobilized protein) from the reaction spot data (immobilized protein) and then subtracting the response of a buffer “blank” analyte injection from that of an analyte injection. Double-referenced data were fit globally to a simple Langmuir model and the KD value was calculated from the ratio of the apparent kinetic rate constants (KD=kd/kₐ).

In another experiment the target is T2, SIRP-α cynomolgus (cynomolgus, UniProt A0A2K5VYQ9 31-148).
T2 construct: Soluble analyte in SPR; also called cynomologous monkey SIRP-α
T2 sequence: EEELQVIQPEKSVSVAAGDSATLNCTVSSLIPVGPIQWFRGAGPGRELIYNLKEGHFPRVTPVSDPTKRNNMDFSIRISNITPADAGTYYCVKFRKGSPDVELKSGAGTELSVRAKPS
As to the method: as §1, §2, §3

A further experiment deals with T3, SIRP-α human v2 (human, UniProt P78324 31-149, limits assumed).
T3 construct: Soluble analyte in SPR
The method, then:
as §1, §2, §3

The next experiment has as its target T4, Human SIRPβ (human, UniProt O00241 30-148).
T4 construct: Soluble analyte in SPR
The method, then:
as §1, §2, §3

For another experiment, the target named is T5, Human SIRPγ (human, UniProt Q9P1W8 29-147, limits assumed).
T5 construct: Soluble analyte in SPR
As to the method:
as §1, §2, §3

T3 sequence (P78324 other isoform, or with tags, fused parts or gaps limits assumed): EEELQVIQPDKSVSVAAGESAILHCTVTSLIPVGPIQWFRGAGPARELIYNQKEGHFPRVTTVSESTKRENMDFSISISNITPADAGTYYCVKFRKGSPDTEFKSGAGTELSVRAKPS
T5 sequence (Q9P1W8 29-147 limits assumed): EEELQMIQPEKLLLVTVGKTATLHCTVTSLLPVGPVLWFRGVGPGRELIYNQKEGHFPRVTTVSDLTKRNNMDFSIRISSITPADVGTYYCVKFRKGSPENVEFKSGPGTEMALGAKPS
T4 sequence (O00241 30-148): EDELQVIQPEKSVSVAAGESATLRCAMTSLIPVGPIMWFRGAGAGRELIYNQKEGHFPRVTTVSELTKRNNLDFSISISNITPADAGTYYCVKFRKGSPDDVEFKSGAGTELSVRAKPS

B1: Hum1/AB21_HC_Mutall (antibody, V domains shown)
VH: EVQLVESGGGVVQPGGSLRLSCAASGFTFSSNAMSWVRQAPGKGLEWVAGISAGGSDTYYPASVKGRFTISRDNSKNTLYLQMNSLRAEDTAVYYCARETWNHLFDYWGQGTLVTVSS
VL: SYELTQPPSVSVSPGQTARITCSGGSYSSYYYAWYQQKPGQAPVTLIYSDDKRPSNIPERFSGSSSGTTVTLTISGVQAEDEADYYCGGYDQSSYTNPFGGGTKLTVL
notes: Whole antibody
Consider B1, for which the Kd with SIRP-α mouse BL6 turned out to be 9500 pM; with SIRP-α cynomolgus it was 29 pM; in the experiment with SIRP-α human v2 it was 4.6 pM; with Human SIRPβ, 6.7 pM; with Human SIRPγ, 1 pM.

B2: Anti-SIRP-α antibody 119, light chain wt, heavy chain wt (antibody, V domains shown)
VH: EVQLLESGGGVVQPGGSLRLSCAASGFSFSNFAMTWVRQAPGEGLEWVSTIGSGDTYYADSVKGRFTISRDNSKNTLYLQMNSLRAEDTAVYYCAKDSTVSWSGDFFDYWGLGTLVTVSS
VL: EIVLTQSPATLSVSPGERATFSCRASQNVKNDLAWYQQRPGQAPRLLIYAARIRETGIPERFSGSGSGTEFTLTITSLQSEDFAVYYCQQYYDWPPFTFGGGTKVEIK
notes: Whole antibody (FreeStyle 293-FS, protein A purified)
With B2, the binding result in the experiment with SIRP-α mouse BL6 is “no binding (tested: 100 nM (highest analyte concentration))”. The Kd with SIRP-α cynomolgus is 110 pM; in the experiment with SIRP-α human v2, 68 pM; with Human SIRPβ, 340 pM; in the experiment with Human SIRPγ, 270 pM.

B3: Anti-SIRP-α antibody 135, light chain wt, heavy chain Mut_V34M (antibody, V domains shown)
VH: B2 VH with L5V, N31I, F32Y, T35S, E43K, S53A, G54D, S101G, L112Q
VL: EIVLTQSPATLSVSPGERVTFSCRASQNVRSDIAWYQQKPGQAPRLLIYAASSRDTGIPDRFSGSGSGTDFTLTISSLQSEDFGVYYCQQYYDWPPFTFGGGTKVEIK
notes: Whole antibody
Take B3: the binding result in the experiment with SIRP-α mouse BL6 is on record as “no binding (tested: 100 nM (highest analyte concentration))”. In addition, the Kd with SIRP-α cynomolgus came to 80 pM; in the experiment with SIRP-α human v2 it was 16 pM; in the experiment with Human SIRPβ, 160 pM; with Human SIRPγ, 530 pM.

B4: Anti-SIRP-α antibody 135, light chain Mut, heavy chain Mut (antibody, V domains shown)
VH: B2 VH with L5V, N31I, F32Y, M34V, T35S, E43K, S53A, G54D, S101G, L112Q
VL: B3 VL with F21L, D60A
notes: Whole antibody
As to B4, in the experiment with SIRP-α mouse BL6, the binding result is listed as “no binding (tested: 100 nM (highest analyte concentration))”. In addition, the Kd was determined as 130 pM with SIRP-α cynomolgus, 18 pM with SIRP-α human v2, 190 pM in the experiment with Human SIRPβ and 730 pM with Human SIRPγ.
